Reference: publication doi:10.1101/2021.04.01.437949 (bioRxiv, 2021)
Each block holds one molecule with its values, some of them ahead of it.

T1: TAP-tagged Kap120 (S. cerevisiae, UniProt Q02932 1-1032)
T1 sequence (looked up): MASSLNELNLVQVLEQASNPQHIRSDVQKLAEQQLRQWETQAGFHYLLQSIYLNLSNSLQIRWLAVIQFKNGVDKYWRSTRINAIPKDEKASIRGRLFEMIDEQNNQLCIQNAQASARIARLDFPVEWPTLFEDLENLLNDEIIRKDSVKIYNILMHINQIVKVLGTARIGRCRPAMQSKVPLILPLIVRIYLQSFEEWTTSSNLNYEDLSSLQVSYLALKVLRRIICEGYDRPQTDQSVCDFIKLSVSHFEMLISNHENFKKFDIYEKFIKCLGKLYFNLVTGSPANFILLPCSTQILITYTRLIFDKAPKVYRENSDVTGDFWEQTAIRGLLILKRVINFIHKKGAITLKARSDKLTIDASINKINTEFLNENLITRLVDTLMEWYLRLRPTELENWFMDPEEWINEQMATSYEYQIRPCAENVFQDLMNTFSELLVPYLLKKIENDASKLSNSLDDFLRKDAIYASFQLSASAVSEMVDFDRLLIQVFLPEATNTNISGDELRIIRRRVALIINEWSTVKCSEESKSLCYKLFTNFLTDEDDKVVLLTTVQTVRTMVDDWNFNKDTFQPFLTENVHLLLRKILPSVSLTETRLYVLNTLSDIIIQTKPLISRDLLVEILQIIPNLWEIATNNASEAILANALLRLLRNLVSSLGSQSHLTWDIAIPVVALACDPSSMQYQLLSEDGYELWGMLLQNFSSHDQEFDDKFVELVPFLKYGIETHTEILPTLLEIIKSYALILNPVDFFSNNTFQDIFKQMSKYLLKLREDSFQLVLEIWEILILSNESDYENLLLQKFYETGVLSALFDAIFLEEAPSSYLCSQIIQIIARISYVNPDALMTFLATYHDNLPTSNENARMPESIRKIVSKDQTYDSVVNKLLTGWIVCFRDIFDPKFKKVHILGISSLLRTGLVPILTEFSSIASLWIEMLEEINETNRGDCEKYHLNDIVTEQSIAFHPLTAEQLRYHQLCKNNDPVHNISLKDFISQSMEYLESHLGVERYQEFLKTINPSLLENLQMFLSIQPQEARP

B1: Tail-GFP (Xrn1 Tail, amino acids 351-521, fused to GFP) (domain or fragment, S. cerevisiae, UniProt P22147 351-521, looked up)
chain: EKDDIDVEWFNKQLENISLEGERKRQRVGKKLLVKQQKKLIGSIKPWLMEQLQEKLSPDLPDEEIPTLELPKDLDMKDHLEFLKEFAFDLGLFITHSKSKGSYSLKMDLDSINPDETEEEFQNRVNSIRKTIKKYQNAIIVEDKEELETEKTIYNERFERWKHEYYHDKLK
B2: Dhh1 (natural protein, S. cerevisiae (endogenous in yeast), UniProt P39517 1-506, looked up)
chain: MGSINNNFNTNNNSNTDLDRDWKTALNIPKKDTRPQTDDVLNTKGNTFEDFYLKRELLMGIFEAGFEKPSPIQEEAIPVAITGRDILARAKNGTGKTAAFVIPTLEKVKPKLNKIQALIMVPTRELALQTSQVVRTLGKHCGISCMVTTGGTNLRDDILRLNETVHILVGTPGRVLDLASRKVADLSDCSLFIMDEADKMLSRDFKTIIEQILSFLPPTHQSLLFSATFPLTVKEFMVKHLHKPYEINLMEELTLKGITQYYAFVEERQKLHCLNTLFSKLQINQAIIFCNSTNRVELLAKKITDLGYSCYYSHARMKQQERNKVFHEFRQGKVRTLVCSDLLTRGIDIQAVNVVINFDFPKTAETYLHRIGRSGRFGHLGLAINLINWNDRFNLYKIEQELGTEIAAIPATIDKSLYVAENDETVPVPFPIEQQSYHQQAIPQQQLPSQQQFAIPPQQHHPQFMVPPSHQQQQAYPPPQMPSQQGYPPQQEHFMAMPPGQSQPQY
B3: recombinant Kap120-6xHis (natural protein, S. cerevisiae, UniProt Q02932 1-1032, looked up)
chain: T1 sequence (looked up)
B4: Pat1 (natural protein, S. cerevisiae (endogenous in yeast), UniProt P25644 1-796, looked up)
chain: MSFFGLENSGNARDGPLDFEESYKGYGEHELEENDYLNDETFGDNVQVGTDFDFGNPHSSGSSGNAIGGNGVGATARSYVAATAEGISGPRTDGTAAAGPLDLKPMESLWSTAPPPAMAPSPQSTMAPAPAPQQMAPLQPILSMQDLERQQRQMQQQFMNFHAMGHPQGLPQGPPQQQFPMQPASGQPGPSQFAPPPPPPGVNVNMNQMPMGPVQVPVQASPSPIGMSNTPSPGPVVGATKMPLQSGRRSKRDLSPEEQRRLQIRHAKVEKILKYSGLMTPRDKDFITRYQLSQIVTEDPYNEDFYFQVYKIIQRGGITSESNKGLIARAYLEHSGHRLGGRYKRTDIALQRMQSQVEKAVTVAKERPSKLKDQQAAAGNSSQDNKQANTVLGKISSTLNSKNPRRQLQIPRQQPSDPDALKDVTDSLTNVDLASSGSSSTGSSAAAVASKQRRRSSYAFNNGNGATNLNKSGGKKFILELIETVYEEILDLEANLRNGQQTDSTAMWEALHIDDSSYDVNPFISMLSFDKGIKIMPRIFNFLDKQQKLKILQKIFNELSHLQIIILSSYKTTPKPTLTQLKKVDLFQMIILKIIVSFLSNNSNFIEIMGLLLQLIRNNNVSFLTTSKIGLNLITILISRAALIKQDSSRSNILSSPEISTWNEIYDKLFTSLESKIQLIFPPREYNDHIMRLQNDKFMDEAYIWQFLASLALSGKLNHQRIIIDEVRDEIFATINEAETLQKKEKELSVLPQRSQELDTELKSIIYNKEKLYQDLNLFLNVMGLVYRDGEISELK

How the values were obtained:
recombinant Kap120-6xHis = target: B3; assay: pull-down
TAP-tagged Kap120 = target: T1, TAP-tagged Kap120; assay: co-IP
[1] = target: FLAG-tagged Xrn1 (wild type) (S. cerevisiae, UniProt P22147 1-1528); assay: pull-down
Sequence of FLAG-tagged Xrn1 (wild type) (P22147 whole entry): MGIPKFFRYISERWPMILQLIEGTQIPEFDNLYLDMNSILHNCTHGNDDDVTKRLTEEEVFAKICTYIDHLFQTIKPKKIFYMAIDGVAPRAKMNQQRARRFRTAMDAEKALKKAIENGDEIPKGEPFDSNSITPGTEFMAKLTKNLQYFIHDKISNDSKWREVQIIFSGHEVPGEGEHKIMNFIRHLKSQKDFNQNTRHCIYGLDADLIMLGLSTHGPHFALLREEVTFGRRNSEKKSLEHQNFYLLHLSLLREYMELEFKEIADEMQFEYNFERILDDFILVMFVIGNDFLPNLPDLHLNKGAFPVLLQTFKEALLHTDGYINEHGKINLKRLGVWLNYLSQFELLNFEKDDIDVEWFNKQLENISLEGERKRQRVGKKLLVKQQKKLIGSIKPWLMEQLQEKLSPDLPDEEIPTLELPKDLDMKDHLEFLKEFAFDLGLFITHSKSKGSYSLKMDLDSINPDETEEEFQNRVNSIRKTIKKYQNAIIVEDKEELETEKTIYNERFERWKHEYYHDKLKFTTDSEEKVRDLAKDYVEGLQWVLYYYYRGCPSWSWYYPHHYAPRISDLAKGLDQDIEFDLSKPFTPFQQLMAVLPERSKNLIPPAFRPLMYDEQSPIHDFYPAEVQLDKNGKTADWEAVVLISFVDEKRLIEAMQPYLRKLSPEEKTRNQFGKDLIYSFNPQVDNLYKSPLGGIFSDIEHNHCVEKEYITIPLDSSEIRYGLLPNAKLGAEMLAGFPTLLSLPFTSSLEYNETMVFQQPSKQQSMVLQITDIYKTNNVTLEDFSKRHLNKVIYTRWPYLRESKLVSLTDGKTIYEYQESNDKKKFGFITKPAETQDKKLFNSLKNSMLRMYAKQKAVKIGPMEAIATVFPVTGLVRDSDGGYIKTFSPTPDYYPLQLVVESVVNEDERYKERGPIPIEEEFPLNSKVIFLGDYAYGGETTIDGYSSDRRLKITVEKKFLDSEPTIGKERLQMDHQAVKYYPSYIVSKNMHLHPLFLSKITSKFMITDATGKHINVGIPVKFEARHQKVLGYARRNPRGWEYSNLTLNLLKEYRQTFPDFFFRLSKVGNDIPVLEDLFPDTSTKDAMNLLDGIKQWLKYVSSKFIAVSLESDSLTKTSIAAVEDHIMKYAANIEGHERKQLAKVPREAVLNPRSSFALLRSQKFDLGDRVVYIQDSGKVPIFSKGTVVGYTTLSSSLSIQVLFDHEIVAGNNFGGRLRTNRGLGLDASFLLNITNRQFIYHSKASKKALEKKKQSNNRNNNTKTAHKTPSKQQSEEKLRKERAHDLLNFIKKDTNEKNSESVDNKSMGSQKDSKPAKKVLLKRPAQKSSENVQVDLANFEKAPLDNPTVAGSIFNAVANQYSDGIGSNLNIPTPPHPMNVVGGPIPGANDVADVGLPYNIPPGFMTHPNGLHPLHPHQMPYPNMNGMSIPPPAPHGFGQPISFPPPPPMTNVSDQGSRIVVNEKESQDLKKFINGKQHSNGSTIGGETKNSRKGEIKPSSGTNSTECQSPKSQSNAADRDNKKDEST

fold weaker than Xrn1^WT-Kap120 (recombinant Kap120-6xHis): 4.5 fold
Molecule: FLAG-tagged Xrn1^ΔNLS1/2 (from UniProt P22147 1-1528) (enzyme)

Molecule: B1
binding result (recombinant Kap120-6xHis): binds

Molecule: B2
fold reduction of the co-IP in Xrn1^ΔNLS1/2 cells against WT cells (TAP-tagged Kap120): ~5 fold

Molecule: B3
binding result [1]: binds

Molecule: B4
fold reduction of the co-IP in Xrn1^ΔNLS1/2 cells against WT cells (TAP-tagged Kap120): ~5 fold
